What was measured:
[1] = tested on: human macrophages M1 or M2; assay: Human monocyte differentiation and polarization, CD200R by FACS and cytokine secretion by ELISA, FIG. 16; type: cell-based; conditions: human cells, 2 μg/ml
Description: FIG. 16. Study of the inflammatory cytokine secretion by human macrophages during CMKLR1 activation. After differentiation of human monocytes, cells were incubated in presence of different isotype controls (mIgG4; hIgG4 or hIgG1 at […]); C7 commercial anti-CMKLR1 antibody (2 μg/ml); 2G4 or 2G1 antibodies (2 μg/ml), or other commercial anti-CMKLR1 antibodies (H6 (2 μg/ml), BZ332 (2 μg/ml) or 84939 (2 μg/ml), C15 peptides (10 nM), or RvE1 (10 ng/ml). A. Expression of the CD200R marker measured by FACS. B. IL10 cytokine secretion by M2 cells. C. CCL17 cytokine secretion by M2 cells. D. represents IL12 cytokine secretion by M1 cells. Secretion of IL10, CCL17 and IL12p40 were assessed by ELISA.
Monocytes were collected from PBMC of buffy coat of healthy volunteers and isolated by magnetic separation or by elutriation. Then, monocytes were cultured with different cocktails of cytokines to generate differentiated unpolarized macrophages or polarized macrophages. This protocol allowed to generate polarized differentiated macrophages in order to have pro-(M1) or anti-(M2) inflammatory macrophages in different wells. Monocytes were plated at 0.5·10^6 cells/mL in complete RPMI (RPMI with 10% FBS, 1% glutamine, 1% antibiotics) and 500 μL of the cell suspension was plated per well in a 24-well plate. 100 ng/ml of M-CSF was added with medium for differentiation of the cells. Cells were incubated 5 days and medium was replaced with fresh medium complemented with 100 ng/ml of M-CSF at day 3. For the polarization phases, solution of LPS-IFNg at 100 ng/ml of LPS and 20 ng/ml of IFNg complemented with isotype controls (mIgG1 or hIgG4) (2 μg/ml) or anti-CMKLR1 antibodies (2 μg/ml) (2G1 or 2G4, H6, BZ332 or 84939) or with C15 peptide (10 nM) or RvE1 (10 ng/ml) during 3 days to generate M1 macrophages. M1-IFNg macrophages could also be generated by adding only IFNg (20 ng/ml) in culture medium. […]
Cytokines secretion was detected by ELISA according to the BD manufacturer instructions. […] TMB supplied by BD Bioscience was used as substrate and colorimetric reaction was read with TECAN.

4T1 cells = assay: Orthotopic 4T1 mammary carcinoma model, primary tumor and metastasis; type: in vivo, mice
Description: FIG. 8. […] Mice were inoculated with 4T1 cells (0.25 millions) in the mammary gland. […] A. The tumor area was measured 8 days after tumor injection and then every 2 days. B. Tumor lung metastasis was measured by Bioluminescence imaging (BLI) in animals treated with isotype control and anti-CMKLR1 antibody (n=4).
Mice were anesthetized with 3% of isoflurane. Mice were shaved on the abdomen and 4T1 cells (0.25 millions) were injected in the mammary gland with an insulinic syringe (30 Gauges) in 50 μL of PBS. […] In a second study to measure the lung metastasis following mammary carcinoma development, animals were treated with anti-CMKLR1 antibody at 0.8 mg/kg or control antibody (100 μg/injection) three times a week for three weeks.

[2] = tested on: Akt and Erk proteins (CMKLR1 pathway); assay: Western blot of Akt and Erk phosphorylation in mice M1 macrophages; type: cell-based; conditions: FIG. 18; mice M1, 2 μg/mL, after 10 to 30 minutes of incubation
Description: FIG. 18. Study of the CMKLR1 pathway activation: Akt and Erk phosphorylation. Western blot analysis of the ERK and AKT activation pathway after 5, 10 and 30 minutes of mice M1 cell incubation with 2G1 or RvE1. The Phosphorylated protein Akt or Erk were assessed using P-Akt antibody or P-Erk antibody (p44/42). A. Erk and Akt activation with RvE1. B. Erk and Akt activation with 2G1.
Mice pro-inflammatory macrophages (M1) were generated from bone marrow with M-CSF and polarized with IFN-gamma (IFNg) and LPS. Briefly, bone marrow cells were collected by flushing the femoral bone and cultured with 100 ng/mL of mM-CSF for 5 days and then polarized with 20 ng/ml of IFNg and 100 ng/mL of LPS for 24 h. Then, they were deprived of FBS for 24 hours with RPMI FBS 2% medium. Finally, mice M1 were treated with 2 μg/mL of 2G1 antibody at different times: 5, 10 and 30 minutes. Cells were collected in a RIPA buffer. The protein concentration was measured by a BCA protein kit assay. Proteins were denatured by heating at 95° C. for 5 minutes and diluted in DTT and Laemmli solution. After migration and transfer, the nitrocellulose membrane was blocked with 5% BSA in TBS-T for 2 hours. […] Western blot Images were quantified by Multi Gauge software

[3] = tested on: C57BI/6 male mice, colitis induced by TNBS; assay: Acute inflammatory colitis model induced by TNBS; type: in vivo; conditions: FIG. 3, 2G1 10 μg, RvE1 1 μg per mouse i.p.
Description: FIG. 3. […] Mice received 200 μL of the haptenating agent TNBS at 5% in 50% ethanol on day 0 and then were injected with isotype control hIgG1 (10 μg per mouse) (x), RvE1 (1 μg per mouse) daily (•), or 2G1 antibody (10 μg per mouse) three times ( ) for 5 days, or non-treated (wild type animals) (▾). Mice were sacrificed colon length was measured in each condition.
Colitis was induced in 8-10 weeks-old-C57BI/6 male mice by intrarectal injection of 200 μL of the haptenating agent TNBS at 5% in 50% ethanol on day 0. Treatments were injected intra-peritoneally; RvE1 (1 μg per mouse) daily for three days, or 2G1 antibody (10 μg per mouse) twice for 3 days. Colitis follow-up consisting of body weight and stool score (0: normal stool; 4: blood in stool) parameters were performed daily (data not represented). When mice are euthanized, colon length representing the pathology severity was measured.

B1: 2G1: chimeric anti-CMKLR1 antibody, murine variable regions (SEQ ID No: 10 and 17), human IgG1 constant regions; VH-CDR3 variant LI (antibody, V domains shown)
VH: METDTLLLWVLLLWVPGSTGDEVQLVASGGGLVQPGGSLKLSCAASGFTFSSYGMSWVRQTPDRRLELVATINRYGGSTYYPDSVKGRFTISRDNAKNTLYLQMSSLKSEDTAMYYCPRLIYYGNEGDSWGQGTTLTVSS
VL: METDTLLLWVLLLWVPGSTGDQIVLTQSPAIMSASPGEKVTMTCSASSSVSFMHWYQQKSGTSPKRWIYDTTKLTSGVPARFSGSGSGTFYSLTISSMEAEDAATYYCQQWNSKPPLTFGPGTKLELKR
modifications: human IgG1 constant regions
notes: VH-CDR3 variant LI
[1]
  CCL17 secretion by M2 type macrophages: able to induce
  IL10 secretion by M2 type macrophages: able to induce
  secretion of the IL12p40 cytokine by M1 type macrophages: able to decrease the secretion
4T1 cells; 4T1 mammary carcinoma, FIG. 8A, 10 μg/injection at day 4 and day 7, vs isotype control
  tumor growth (tumor area): did not show any improvement in the tumor growth
4T1 cells; 4T1 model, FIG. 8B, 0.8 mg/kg three times a week for three weeks, vs control antibody
  lung metastasis by bioluminescence imaging: reduces the lung metastasis
4T1 cells; 4T1 model, data not shown, two animals in the control have metastasis
  lymph node metastasis: no animals treated with the anti-CMKLR1 compound has metastasis
[2]
  activation (phosphorylation) of Akt protein: able to induce the activation
  activation (phosphorylation) of Erk protein: able to induce the activation
[3]
  colon length: the same as normal animal (wt)

From patent US20240400698A1, “ANTI-CHEMOKIN LIKE RECEPTOR 1 ANTIBODIES AND THEIR THERAPEUTIC APPLICATIONS” (OSE IMMUNOTHERAPEUTICS, priority 2018, published 2024)
